B1: zebrafish PepT1a (Slc15a1a) (Danio rerio) (protein)
chain: MPDSKMDETKKKKKKTAECCGYPISIFFIVVNEFCERFSYYGMRAVLVLYFRYFLLWDDDLATSIYHAFVALCYLTPILGAIIADSWLGKFKTIIYLSIVYAVGQVVMAVSTIHDITDANRDGTPDNFTLHIALSMLGLVLIALGTGGIKPCVAAFGGDQFQEHQSRQLNTFFSVFYLCINAGSLLSTLITPVLRAQECGIHTQQQCYPLAFGVPAALMVVSLVVFIAGSGMYTKTAPEGNIMGSVCKCIWFALNNRFRHRSDIYPKREHWMDWAEEKYDKLLIAQIKMVLKVLFLYIPLPMFWTLFDQKGSRWTLQATTMTGDFGGFVLQPDQMQTVNPILILTLVPIMDRIIFPLIKKCGLNFSPLKRMTVGMLFAATAFIAAALVQMEIDKTLPNFPSSSESQLKVVNMHSESLIVTVPSQEPLLIGSFESSPDYITFDQQDIRLAFNTTPEINKDLSLIKGSRQTLIIPSEPAEMYLKEDIKSKPKEGKNAVRFVNGWTAYLNITNLESSLQPSETSNYTLVSQGMRKFTLTDGIQSCEFSRKFGFGSSYTFLIPSDLFSTDCESIKEIEDMQPNSVHMALQIPQYFLITTGEVMFSVTGLQFSYSQAPKNMKSVLQAGWLCTNAVGNIIVLIVAELGKLPKQWAEYVLFASLLVAVSIIFSIMAYFYTYIDPAEIEAEILKQQETDPDKKKKKETLEMEEKENEQEIKQTKI
notes: full-length cDNA cloned from zebrafish intestine, 717 residues, pSPORT1, cRNA in Xenopus laevis oocytes; untagged
B2: zebrafish PepT1b (Slc15a1b) (Danio rerio) (protein)
chain: MADKEGHKQKKERASCFGYPVSIFFIVVNEFCERFSYYGMKAVLVLYFKYFIGWDDDLSTTIYHTFVALCYLTPIMGAIIADSWLGKFKTIVYLSIVYTIGQVIMAISAIHDITDANRDGKPDNKTLHISLSMLGLILIALGTGGIKPCVAAFGGDQFEDHQEKQRSTFFSIFYLSINAGSLLSTLITPILRSQECGIYAKQSCYPLAFGVPAALMVVALIVFVIGHKMYIMESPKGNILLQVINCIGFALNNRFRHRGKQYPKREHWMDWAEEKYDKLLIAQVKMVVKVLFLYIPLPMFWALFDQQGSRWTIQATTMDGNFGGFVIQPDQMQIVNPILIVIMVPIMDSAIYPLIKLCRINFTPLRKMTVGMVLAALAFVAAALLQLQIDETMPKFPSTSQTQLKFLNVESTSLPVVVEGQDQFMVPGFNASSEYLTLDKENVTISAGGVNDTAFLKTGTRHTVLMNAAGMRNTLDDLTEKPEQGLNAIRFVNGWENRLNVSVKSDNVHADPLDASVYLLVPHGKVNFTIFDGGDGKCHYIMQLGFGSTYTVLIPSTFAFGQTCSESFEAVQDMEPNRIHMAWQVIQYFLLTCGEVVYSVTGLDFSYSQAPSNMKSVLQAGWLLTVAVGNIIVLIVAEAGSLPDQWAEYLLFASLLVAVSIIFAIMAYFYTYIDPNEIEAKFKELEPEDKKRKEMQMTAKDNMAYVHNENTNIKQTKI
notes: cRNA-expressed in Xenopus laevis oocytes; construct not described here (previously cloned zebrafish PepT1)

Assays:
[1] = substrate: NCC(=O)N[C@@H](CCC(N)=O)C(=O)O; assay: two-electrode voltage clamp, transport current in Xenopus oocytes; type: cell-based, Danio rerio; settings: pH 6.5, -60 mV, NaCl buffer, proton-coupled
From the text: two-electrode voltage clamp, transport current in Xenopus oocytes on zebrafish PepT1a (Slc15a1a)

[2] = substrate: NCC(=O)N[C@@H](CCC(N)=O)C(=O)O; assay: as above; type: cell-based, Danio rerio; settings: pH 6.5, -60 mV, NaCl buffer, proton-coupled; remark: listed apart in the source
From the text: two-electrode voltage clamp, transport current in Xenopus oocytes on zebrafish PepT1b (Slc15a1b)

Protein | K0.5 [1] [mmol/L] | K0.5 [2] [mmol/L]
B1 | 0.24 ± 0.07 | 
B2 |  | 0.13 ± 0.02

Reference: publication PMC6923934, “The peptide transporter 1a of the zebrafish Danio rerio, an emerging model in nutrigenomics and nutrition research: molecular characterization, functional properties, and expression analysis” (Genes & Nutrition, 2019)
